Measured values reported in US20260022175A1 (Chugai, published 2026).

Assays:
Test in all cases: SPR Biacore 8k+ 25C, antibody captured, FcγR analyte; mean
[1] = molecular target: T1, human FcγRIa extracellular domain with C-terminal His tag (human, UniProt P12314 16-288)
T1 construct: also called hFcγRIa
Procedure: (§1) Here, Tremfya (Janssen Pharmaceutical K.K), which is an IgG1 antibody in which the L-chain is a X-chain, was also evaluated as a control. The binding activity was evaluated at 25° C. using as a running buffer 50 mM phosphate buffer, 150 mM NaCl, 0.05 w/v %-P20, pH7.4. As a molecule for ligand capture, CaptureSelect (trademark) Human Fab-lambda Kinetics Biotin Conjugate (ThermoFisher scientific) was immobilized onto a Series S Sensor chip SA sensor chip (Cytiva). An antibody solution prepared with the running buffer was allowed to interact with the SA sensor chip for capturing about 250 RU, or 500 RU, or about 1000 RU, of antibody. Then, hFcγRs and cyFcγRs diluted with the running buffer were allowed to bind to the captured antibodies. […] The chip was regenerated using 10 mM Glycine-HCl (pH 1.5), and measurements were performed by repeatedly capturing the antibodies. The binding activity of each antibody for each FcγR was evaluated by calculating the KD value using the Biacore Insight Evaluation Software with the Steady state model or 1:1 binding model.

[2] = molecular target: T2, human FcγRIIa(H) extracellular domain with C-terminal His tag (human, UniProt P12318 34-217)
T2 construct: also called hFcγRIIa(H)
T2 sequence: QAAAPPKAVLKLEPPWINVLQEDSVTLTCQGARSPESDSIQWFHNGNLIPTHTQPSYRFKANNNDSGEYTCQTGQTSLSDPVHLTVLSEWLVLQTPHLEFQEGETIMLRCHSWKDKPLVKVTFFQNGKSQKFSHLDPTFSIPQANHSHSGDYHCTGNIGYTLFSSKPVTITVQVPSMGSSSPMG
Procedure: as §1

[3] = molecular target: T3, human FcγRIIa(R) extracellular domain with C-terminal His tag (human, UniProt P12318 34-217)
T3 construct: also called hFcγRIIa(R)
T3 chain: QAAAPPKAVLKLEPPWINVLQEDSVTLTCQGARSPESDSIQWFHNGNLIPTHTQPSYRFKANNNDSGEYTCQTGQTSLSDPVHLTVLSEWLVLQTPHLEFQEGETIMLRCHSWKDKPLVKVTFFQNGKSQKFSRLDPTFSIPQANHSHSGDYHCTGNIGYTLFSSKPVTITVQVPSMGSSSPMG
Procedure: as §1

[4] = molecular target: T4, human FcγRIIb extracellular domain with C-terminal His tag (human, UniProt P31994 43-217)
T4 construct: also called hFcγRIIb
T4 sequence: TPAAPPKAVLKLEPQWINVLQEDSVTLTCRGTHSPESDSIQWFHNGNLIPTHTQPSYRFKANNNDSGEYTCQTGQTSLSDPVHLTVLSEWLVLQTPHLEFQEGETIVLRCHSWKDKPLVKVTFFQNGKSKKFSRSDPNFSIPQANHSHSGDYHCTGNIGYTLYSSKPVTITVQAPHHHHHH
Procedure: as §1

[5] = molecular target: T5, human FcγRIIIa(V) extracellular domain with C-terminal His tag (human, UniProt P08637 17-208)
T5 construct: also called hFcγRIIIa(V)
Procedure: as §1

[6] = molecular target: T6, human FcγRIIIa(F) extracellular domain with C-terminal His tag (human, UniProt P08637 17-208)
T6 construct: also called hFcγRIIIa(F)
Procedure: as §1

[7] = molecular target: T7, cynomolgus monkey FcγRIIa3 extracellular domain with His tag (cynomolgus monkey)
T7 construct: also called cyFcγRIIa3
T7 chain: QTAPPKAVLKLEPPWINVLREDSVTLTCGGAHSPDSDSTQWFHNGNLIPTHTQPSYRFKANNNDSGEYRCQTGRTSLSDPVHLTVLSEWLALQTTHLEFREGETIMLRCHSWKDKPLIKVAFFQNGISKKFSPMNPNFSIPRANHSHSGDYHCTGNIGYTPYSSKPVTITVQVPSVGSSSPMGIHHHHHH
Procedure: as §1

[8] = molecular target: T8, cynomolgus monkey FcγRIIb extracellular domain with His tag (cynomolgus monkey)
T8 construct: also called cyFcγRIIb
T8 chain: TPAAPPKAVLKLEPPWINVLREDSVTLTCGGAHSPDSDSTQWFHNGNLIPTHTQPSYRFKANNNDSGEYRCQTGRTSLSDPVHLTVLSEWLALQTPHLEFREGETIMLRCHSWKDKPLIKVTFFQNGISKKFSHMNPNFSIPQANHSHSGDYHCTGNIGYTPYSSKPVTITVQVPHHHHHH
Procedure: as §1

[9] = molecular target: T9, cynomolgus monkey FcγRIIIa(R) extracellular domain with His tag (cynomolgus monkey, UniProt Q8SPW2 17-208)
T9 construct: also called cyFcγRIIIa(R)
Procedure: as §1

[10] = molecular target: T10, cynomolgus monkey FcγRIIIa(S) extracellular domain with His tag (cynomolgus monkey, UniProt Q8SPW2 21-206 at identity 1.00))
T10 construct: also called cyFcγRIIIa(S)
T10 chain: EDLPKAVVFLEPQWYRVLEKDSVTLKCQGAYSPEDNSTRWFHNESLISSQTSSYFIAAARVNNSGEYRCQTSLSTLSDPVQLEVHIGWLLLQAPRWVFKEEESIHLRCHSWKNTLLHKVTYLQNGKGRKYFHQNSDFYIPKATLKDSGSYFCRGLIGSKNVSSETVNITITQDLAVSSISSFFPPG
Procedure: as §1

[11] = molecular target: T11, cynomolgus monkey FcγRIa extracellular domain with His tag (cynomolgus monkey, UniProt P12314 16-288 (human entry))
T11 construct: also called cyFcγRIa
T11 chain: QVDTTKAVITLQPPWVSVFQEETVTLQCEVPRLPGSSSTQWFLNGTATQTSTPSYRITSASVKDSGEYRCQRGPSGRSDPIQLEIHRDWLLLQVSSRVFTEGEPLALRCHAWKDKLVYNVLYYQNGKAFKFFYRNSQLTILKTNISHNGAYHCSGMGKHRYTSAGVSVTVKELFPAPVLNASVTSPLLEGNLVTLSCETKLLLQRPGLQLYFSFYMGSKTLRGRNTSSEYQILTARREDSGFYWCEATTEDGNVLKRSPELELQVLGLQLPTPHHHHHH
Procedure: as §1

[12] = molecular target: T12, cynomolgus monkey FcγRIIa1 extracellular domain with His tag (cynomolgus monkey)
T12 construct: also called cyFcγRIIa1
T12 chain: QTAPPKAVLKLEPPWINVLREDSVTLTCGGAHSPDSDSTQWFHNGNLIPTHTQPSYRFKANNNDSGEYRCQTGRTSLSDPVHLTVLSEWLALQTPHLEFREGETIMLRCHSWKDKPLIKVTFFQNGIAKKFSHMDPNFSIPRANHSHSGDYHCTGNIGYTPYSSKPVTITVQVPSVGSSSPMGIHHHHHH
Procedure: as §1

[13] = molecular target: T13, cynomolgus monkey FcγRIIa2 extracellular domain with His tag (cynomolgus monkey)
T13 construct: also called cyFcγRIIa2
T13 chain: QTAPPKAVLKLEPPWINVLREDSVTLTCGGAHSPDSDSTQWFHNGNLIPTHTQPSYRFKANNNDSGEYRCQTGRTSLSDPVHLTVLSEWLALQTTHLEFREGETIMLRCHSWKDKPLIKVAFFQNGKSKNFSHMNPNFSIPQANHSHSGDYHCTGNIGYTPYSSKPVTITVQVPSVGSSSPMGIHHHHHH
Procedure: as §1

T6 sequence (P08637 other isoform, or with tags, fused parts or gaps): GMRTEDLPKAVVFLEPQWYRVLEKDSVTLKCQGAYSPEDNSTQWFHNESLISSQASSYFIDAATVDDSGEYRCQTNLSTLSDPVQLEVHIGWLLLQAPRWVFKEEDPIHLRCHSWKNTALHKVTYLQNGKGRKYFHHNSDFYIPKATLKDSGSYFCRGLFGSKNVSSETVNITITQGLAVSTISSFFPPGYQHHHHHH
T5 sequence (P08637 other isoform, or with tags, fused parts or gaps): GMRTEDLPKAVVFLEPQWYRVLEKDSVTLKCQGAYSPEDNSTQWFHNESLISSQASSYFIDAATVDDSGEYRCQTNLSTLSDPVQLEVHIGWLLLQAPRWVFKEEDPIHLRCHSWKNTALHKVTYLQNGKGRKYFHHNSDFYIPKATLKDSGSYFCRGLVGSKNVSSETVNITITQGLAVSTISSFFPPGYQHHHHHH
T9 sequence (Q8SPW2 other isoform, or with tags, fused parts or gaps): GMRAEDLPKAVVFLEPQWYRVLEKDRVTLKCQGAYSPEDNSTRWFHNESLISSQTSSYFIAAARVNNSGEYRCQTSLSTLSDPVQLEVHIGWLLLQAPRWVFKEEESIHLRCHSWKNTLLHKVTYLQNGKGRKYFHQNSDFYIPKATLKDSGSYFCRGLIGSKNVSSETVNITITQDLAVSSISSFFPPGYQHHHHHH

B1: 04H1654-KT498/04L1610-lam1//04H1656-HT518/04L1610-lam1 (antibody, human IgG1, lambda)
heavy 1: QVQLVESGGGVVQPGGSLRLSCAASGFTFSSKTMNWVRQAPGKGLEWVSSISTQSHYIYYARSVRGRFTISRDNAKNSLYLQMNSLRAEDTAVYYCARYGKREDMLWVFDYWGQGTLVTVSSASTKGPSVFPLAPSSKSTSGGTAALGCLVKDYFPEPVTVSWNSGALTSGVHTFPAVLQSSGLYSLSSVVTVPSSSLGTQTYICNVNHKPSNTKVDKRVEPKSCDKTHTCPPCPAPEFQWGPMVFLFPPKPKDVLMISRTPEVTCVVVDVSDEEPEVKFNWYVDGVEVHNAKTKPREEQYNATYRVVSVLPVLHQDWLNGKEYKCKVSNKALPMPIEKTISKAKGQPREPQVYTLPPSRKEMTKNQVSLTCLVKGFYPSDIAVEWESNGQPENNYKTTPPVLDSDGSFFLYSKLTVDKSRWQQGNVFSCSVMHEALHNHYTQKSLSLSP
heavy 2: QVQLVESGGGVVQPGGSLRLSCAASGFTFSSKTMNWVRQAPGKGLEWVSSISTQSHYIYYAESVRGRFTISRDNAKNSLYLQMNSLRAEDTAVYYCARYGAREDMLWVFDYWGQGTLVTVSSASTKGPSVFPLAPSSKSTSGGTAALGCLVKDYFPEPVTVSWNSGALTSGVHTFPAVLQSSGLYSLSSVVTVPSSSLGTQTYICNVNHKPSNTKVDKRVEPKSCDKTHTCPPCPAPELLGGPSVFLFPPKPKDVLMISRTPEVTCVVVDVSHEEPEVKFNWYVDGVEVHNAKTKPREEQYNATYRVVSVLPVLHQDWLNGKEYKCKVSNDALPMPIEETISKAKGQPREPQVYTLPPSREEMTKNQVSLTCLVKGFYPSDIAVEWESNGQPENNYKTTPPVLDSDGSFFLYSKLTVDKSRWQQGNVFSCSVMHEALHNHYTQESLSLSP
light: QSALTQPPSASGSPGQSVTISCEGPSTGVGDYNWVHWYQQHPGKAPKLMIYFTSKKPSGVPDRFSGSKSGNTASLTVSGLQAEDEADYYCQTYAAPLGPMFGGGTKLTVLGQPKAAPSVTLFPPSSEELQANKATLVCLISDFYPGAVTVAWKADSSPVKAGVETTTPSKQSNNKYAASSYLSLTPEQWKSHRSYSCQVTHEGSTVEKTVAPTECS
notes: also called SW1610-ART12
[1]
  Kd: 0.0387 nM
[2]
  Kd: 343 nM
[3]
  Kd: 1790 nM
[4]
  Kd: 38800 nM
[5]
  Kd: 1.82 nM
[6]
  Kd: 4.13 nM
[7]
  Kd: 5290 nM
[8]
  Kd: 2520 nM
[9]
  Kd: 1.01 nM
[10]
  Kd: 0.933 nM
[11]
  Kd: 0.0106 nM
[12]
  Kd: 540 nM
[13]
  Kd: 2320 nM
